Test results taken from article PMC6615864, “Genetic interactions of G-quadruplexes in humans”.

How the values were obtained:
DDX42 [1] = target: T1, DDX42 (Homo sapiens, UniProt Q86XP3 1-938); assay: ELISA; 100 mM KCl; apparent Kd; ELISA: 50 mM K2HPO4 pH 7.4, 100 mM KCl (or 100 mM LiCl), 3% BSA block, 0.1% Tween-20 washes; blocking at room temperature, DDX42 1 h; 50 nM biotin-oligo coating; oligos annealed in 10 mM Tris-HCl pH 7.4, 100 mM KCl; conditions: protein: commercial; tags: N-terminal GST; label: 5' biotin; parallel G4 (CD verified)
T1 sequence: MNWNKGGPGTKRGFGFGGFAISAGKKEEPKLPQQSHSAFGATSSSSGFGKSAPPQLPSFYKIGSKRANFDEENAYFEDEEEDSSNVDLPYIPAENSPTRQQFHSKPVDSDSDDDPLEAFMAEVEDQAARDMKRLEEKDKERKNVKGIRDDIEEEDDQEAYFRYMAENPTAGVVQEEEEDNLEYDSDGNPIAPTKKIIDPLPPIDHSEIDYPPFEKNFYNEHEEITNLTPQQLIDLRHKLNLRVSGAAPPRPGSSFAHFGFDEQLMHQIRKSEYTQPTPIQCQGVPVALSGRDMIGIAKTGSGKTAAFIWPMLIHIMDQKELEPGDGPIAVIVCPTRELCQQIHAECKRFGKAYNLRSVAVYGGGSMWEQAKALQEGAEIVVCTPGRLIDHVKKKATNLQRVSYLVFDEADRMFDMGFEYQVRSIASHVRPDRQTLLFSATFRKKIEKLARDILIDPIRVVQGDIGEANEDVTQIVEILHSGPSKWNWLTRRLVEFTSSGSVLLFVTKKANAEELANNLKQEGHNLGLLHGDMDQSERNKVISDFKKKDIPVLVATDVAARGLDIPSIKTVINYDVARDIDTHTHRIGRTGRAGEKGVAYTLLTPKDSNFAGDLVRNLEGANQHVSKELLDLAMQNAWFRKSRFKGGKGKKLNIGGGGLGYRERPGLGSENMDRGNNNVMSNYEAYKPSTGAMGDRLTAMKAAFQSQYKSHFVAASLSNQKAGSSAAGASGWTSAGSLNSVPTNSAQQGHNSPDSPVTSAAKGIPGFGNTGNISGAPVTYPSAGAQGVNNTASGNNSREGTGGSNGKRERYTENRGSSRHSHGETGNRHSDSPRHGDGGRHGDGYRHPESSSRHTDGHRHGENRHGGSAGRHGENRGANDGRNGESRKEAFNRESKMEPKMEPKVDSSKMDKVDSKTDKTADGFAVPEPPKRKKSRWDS

DDX42 [2] = target: T1, DDX42; assay: ELISA; 100 mM KCl; apparent Kd, above the 200 nM top concentration; ELISA: 50 mM K2HPO4 pH 7.4, 100 mM KCl (or 100 mM LiCl), 3% BSA block, 0.1% Tween-20 washes; blocking at room temperature, DDX42 1 h; 50 nM biotin-oligo coating; oligos annealed in 10 mM Tris-HCl pH 7.4, 100 mM KCl; conditions: protein: commercial; tags: N-terminal GST; label: 5' biotin; parallel G4 (CD verified)
DDX42 [3] = target: T1, DDX42; assay: ELISA; not detectable up to 200 nM DDX42; ELISA: 50 mM K2HPO4 pH 7.4, 100 mM KCl (or 100 mM LiCl), 3% BSA block, 0.1% Tween-20 washes; blocking at room temperature, DDX42 1 h; 50 nM biotin-oligo coating; oligos annealed in 10 mM Tris-HCl pH 7.4, 100 mM KCl; conditions: protein: commercial, tags: N-terminal GST, label: 5' biotin

B1: NRAS G4 (rG4) (structured_RNA)
RNA: UGUGGGAGGGGCGGGUCUGGGUGC
Kd (DDX42 [1]): 71.1 ± 3.5 nM

B2: Myc G4 (dG4) (structured_DNA)
DNA: TGAGGGTGGGTAGGGTGGGTAA
Kd (DDX42 [2]): 233 ± 23.5 nM

B3: Stem loop (RNA hairpin) (structured_RNA)
RNA: ACAGGGCUCCGCGAUGGCGGAGCCCAA
binding result (DDX42 [3]; hairpin): no binding

B4: NRAS mut (rG4 mut) (ssRNA)
RNA: UGUAGAAAGAGCAGAUCUAGAUG
binding result (DDX42 [3]; no G4): no binding
